Source: patent US7423017B2, “Method for treating cartilage disorders” (Genentech, Inc., priority 1997, dated 2008)
Where two headings read alike, the source gives them in different places. Starred links: 1 amine or outer side, 2 acyl side, 3 side chain; linkers in the order of their positions; H or OH if unused. Positions of bridges follow the written chain, without caps; N, C: chain ends. Residues, ends and D or L forms follow the SMILES beside them. No end group written: not given here. Suc = O=C(CCC(=O)[*:2])[*:1]

Legend:
[1] = biological target: T1, IGFBP-3 (Homo sapiens, UniProt P17936); experiment: BIACORE competition assay: IGFBP-3 binding to immobilized IGF-1; details: for IC50 (mut) / IC50 (wt): IGF-1 inhibition, wt = BP3-01-ox
T1 construct: made in house
Protocol: IGF-1 was immobilized on a dextran chip for inhibition assays using a BIACORE™ 2000 surface-plasmon-resonance device (BIAcore, Inc., Piscataway, N.J.) to measure free binding protein. IGF-1 was biotinylated as described above, and injected over a chip to which streptavidin had been coupled (BIAcore, Inc.) to give 400 to 800 RU (response units) of immobilized IGF-1. […] Serial dilutions of peptide were mixed with a constant concentration (40 nM) of IGFBP-3. After incubation for >1 hour at room temperature, an aliquot of 20 μL was injected at a flow rate of 20 μL/min over the IGF-1 chip. Following the injection, a response reading was taken to measure the relative amount of IGFBP-3 bound to the IGF-1.

[2] = biological target: T2, IGFBP-1 (Homo sapiens, UniProt P08833); experiment: competitive phage ELISA of IGF-1 mutants, IGFBP-1; type: binding; parameters: made in house; host or cells: CHO cells
T2 sequence (P08833 26-259): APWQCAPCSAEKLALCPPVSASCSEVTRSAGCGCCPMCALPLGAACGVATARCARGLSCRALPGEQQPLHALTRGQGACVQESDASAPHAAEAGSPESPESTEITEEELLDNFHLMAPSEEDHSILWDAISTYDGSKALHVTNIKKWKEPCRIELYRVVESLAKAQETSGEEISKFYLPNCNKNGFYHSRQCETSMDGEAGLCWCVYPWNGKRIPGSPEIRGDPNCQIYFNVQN
Protocol: (§1) An alanine-scanning mutagenesis approach (Cunningham and Wells, Science, 244: 1081-1085 (1989); U.S. Pat. No. 5,834,250) was used to remove that portion of each side chain of IGF-1 beyond the beta carbon. The contribution of these atoms to the free energy of binding of the IGF-1 analog to IGFBP-1 or to IGFBP-3 was then assessed by competitive phage ELISA. In this assay, IGFBP-1 or IGFBP-3 is used to inhibit IGF-phage mutants from binding to an IGFBP-1- or IGFBP-3-coated immunosorbant plate.
(§2) Immunosorbent plates (Nunc, MAXISORP™, 96 wells) were coated with 100 μl/well of 1 μg/ml IGFBP-1 or IGFBP-3 in PBS buffer pH 7.2 at 4° C. overnight. The plates were then blocked with 0.5% TWEEN 20™/PBS (also used as binding buffer) for 2 hours at room temperature (proteinaceous blocking agents like bovine serum albumin were avoided to prevent potential IGF or IGFBP contamination). E. coli cells (XL1-Blue, Stratagene) freshly transformed with phagemid vector were grown overnight in 5 mL 2YT medium (Sambrook et al., supra) in the presence of M13-VCS helper phage (Stratagene). Phage particles were harvested and resuspended in PBS buffer as described in Lowman, H. B., “Phage Display of Peptide Libraries on Protein Scaffolds,” in Cabilly, S. (ed.), Combinatorial Peptide Library Protocols (Humana Press Inc.: Totowa, N.J., 1998), pp. 249-264. Then phage concentrations were normalized to yield a maximal ELISA signal of 0.2-0.4 for each mutant (Lowman, in Cabilly, S. (ed.), supra). Threefold serial dilutions of soluble competitor were prepared on non-absorbent microtiter plates (Nunc, F, 96 wells) with binding buffer (0.5% TWEEN 20™/PBS) containing phage at the previously determined concentrations. The dilution range of competitor protein extended over six orders of magnitude, starting at 5 μM for IGFBP-1 and 500 nM for IGFBP-3. After blocking, the plates containing immobilized target were washed with 0.05% TWEEN™/PBS buffer and subsequently incubated with 80 μl/well of the premixed phage-competitor solutions for 1 hour at room temperature. After washing, bound phage was detected with 80 μl/well of a solution containing a primary rabbit anti-phage polyclonal antibody and a secondary goat anti-rabbit monoclonal antibody-horseradish peroxidase conjugate in 0.5% TWEEN 20™/PBS. o-Phenylenediamine (Sigma) and tetramethylbenzidine (Kirkegaard and Perry) were used as chromogenic substrates, resulting in product detection at 492 and 450 nm, respectively. IC50 values were determined by fitting the binding data to a generic saturation curve (Lowman, in Cabilly, S. (ed.), supra). At least two individual clones of each IGF-1 mutant were assayed. Numbers in Table XIII represent mean±standard deviation of individually assessed IC50 values.

[3] = biological target: T1, IGFBP-3; experiment: competitive phage ELISA of IGF-1 mutants, IGFBP-3; type: binding
Protocol: as §1, §2

[4] = biological target: T2, IGFBP-1; experiment: BIACORE kinetics: IGFBP-1 binding to immobilized IGF-1 variants; parameters: made in house; host or cells: CHO cells; details: Table XVI; Y31C immobilized via disulfide linkage
Protocol: The binding affinities of the IGF variants for IGFBP-1 and IGFBP-3 were determined using a BIACORE™-2000 real time kinetic interaction analysis system (Biacore, Inc., Piscataway, N.J.) to measure association (ka) and dissociation (kd) rates. Carboxymethylated dextran biosensor chips (CM5, BIAcore Inc.) were activated with EDC (N-ethyl-N′-(3-dimethylaminopropyl)-carbodiimide hydrochloride) and NHS(N-hydroxysuccinimide) according to the supplier's instructions. For immobilization, IGF mutants in 20 mM sodium acetate, pH 4.8, were injected onto the biosensor chip at a concentration of 50 μg/ml to yield approximately 450-600 RU's (resonance-responce units) of covalently-coupled protein. Unreacted groups were blocked with an injection of 1 M ethanolamine. Kinetic measurements were carried out by injecting two-fold serial dilutions (starting at 1 μM) of either IGFBP-1 or IGFBP-3 in running buffer (PBS, 0.05% TWEEN 20™, 0.1% ovalbumin, 0.1% sodium azide) at 25 °C using a flow rate of 20 μl/min. Association rates (ka) and dissociation rates (kd) were calculated separately using a 1:1 Langmuir™ association model in the BIACORE™ evaluation software v. 3.0. The equilibrium dissociation constant (KD) was calculated as kd/ka.
For measurements of IGFBP-1 binding to IGF-1, kinetics experiments were conducted using a single-cysteine IGF-1 variant, Y31C, that was immobilized onto the sensor chip surface via a disulfide linkage (BIACORE™ System Manual Supplement, 5a-1, Pharmacia (1991)).

[5] = system: IGFBP-1; experiment: competitive phage ELISA of IGF-1 mutants, IGFBP-1; type: binding, human; details: relative IC50 IGFBP-1/relative IC50 IGFBP-3
Protocol: as §1, §2

[6] = IC50 mut/IC50 G1S-A70V, listed as Ala(1-3)-IGF-1

T1 sequence (P17936 28-291): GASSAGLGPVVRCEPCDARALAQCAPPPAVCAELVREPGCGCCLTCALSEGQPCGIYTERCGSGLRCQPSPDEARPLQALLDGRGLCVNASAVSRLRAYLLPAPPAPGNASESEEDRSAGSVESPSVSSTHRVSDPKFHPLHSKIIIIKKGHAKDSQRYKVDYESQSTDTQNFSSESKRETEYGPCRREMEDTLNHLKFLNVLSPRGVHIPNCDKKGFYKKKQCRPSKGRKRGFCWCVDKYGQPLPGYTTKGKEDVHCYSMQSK

Question: With CC[C@H](C)[C@@H]1NC(=O)[C@H](Cc2ccc(O)cc2)NC(=O)CNC(=O)[C@H](CCC(N)=O)NC(=O)[C@H](Cc2c[nH]cn2)NC(=O)[C@H](CCCNC(=N)N)NC(=O)[C@H](CC(=O)O)NC(=O)[C@H](Cc2c[nH]c3ccccc23)NC(=O)[C@@H](NC(=O)[C@@H](NC(=O)[C@H](CCC(=O)O)NC(=O)[C@H](Cc2c[nH]c3ccccc23)NC(=O)[C@H](C)N)C(C)C)CSSC[C@@H](C(=O)N[C@H](C(=O)N[C@H](C(=O)N[C@@H](CC(=O)O)C(=O)N[C@@H](CO)C(=O)O)[C@@H](C)O)[C@@H](C)O)NC1=O [BP3-4D3.11DEL] (H-AWEVCWDRHQGYICTTDS-OH; disulfide 5-14; N-terminus and C-terminus assumed) as the molecule, how does the IC50 [1] read?
Answer: 80 µM

Question: Which results are given for CSCC[C@H](NC(=O)[C@H](CC(N)=O)NC(=O)[C@@H]1CSSC[C@H](NC(=O)[C@@H](NC(=O)[C@H](CCC(=O)O)NC(=O)[C@H](CCC(=O)O)NC(=O)[C@H](CO)NC(=O)[C@H](C)N)C(C)C)C(=O)N[C@@H](Cc2c[nH]c3ccccc23)C(=O)N2CCC[C@H]2C(=O)N[C@@H](C(C)C)C(=O)N[C@@H](C)C(=O)N[C@@H](CCC(=O)O)C(=O)N[C@@H](Cc2c[nH]c3ccccc23)C(=O)N[C@@H](Cc2ccc(O)cc2)C(=O)N[C@@H](CC(C)C)C(=O)N1)C(=O)N[C@@H](Cc1c[nH]c2ccccc12)C(=O)NCC(=O)N[C@@H](CCCNC(=N)N)C(=O)O [4D3.3P] (H-ASEEVCWPVAEWYLCNMWGR-OH; disulfide 6-15; N-terminus and C-terminus assumed)?
Answer: IC50 [1]: 5.6 µM; IC50 (mut) / IC50 (wt) [1]: 2.8

Question: Which “IGFBP-1 IC50” value ([2]; phage display, soluble IGFBP-1 competitor) does the source give for “Y31C: point mutant of IGF-1 with a single unpaired cysteinyl thiol for site-specific immobilization” here?
Answer: wild-type-like affinities

Question: And the “IGFBP-3 IC50” value ([3]; phage display, soluble IGFBP-3 competitor)?
Answer: wild-type-like affinities

Question: And the IGFBP-1 ka [4]?
Answer: 3.9 ± 0.4 ×10^4 M^−1

Question: And the IGFBP-1 kd [4]?
Answer: 3.8 ± 0.1 ×10^−4 s^−1

Question: How did the “IC50 (mut) / IC50 (wt)” value [1] turn out when WPVAEWYLCN [BP3-24] was run?
Answer: >500

Question: For CSCC[C@H](NC(=O)[C@H](CC(N)=O)NC(=O)[C@@H]1CSSC[C@H](NC(=O)[C@@H](N)C(C)C)C(=O)N[C@@H](Cc2c[nH]c3ccccc23)C(=O)N2CCC[C@H]2C(=O)N[C@@H](C(C)C)C(=O)N[C@@H](C)C(=O)N[C@@H](CCC(=O)O)C(=O)N[C@@H](Cc2c[nH]c3ccccc23)C(=O)N[C@@H](Cc2ccc(O)cc2)C(=O)N[C@@H](CC(C)C)C(=O)N1)C(=O)N[C@@H](Cc1c[nH]c2ccccc12)C(=O)NCC(=O)O [BP3-16] (H-VCWPVAEWYLCNMWG-OH; disulfide 2-11; N-terminus and C-terminus assumed), which IC50 [1] is on record?
Answer: 30 µM

Question: CC(C)C[C@@H]1NC(=O)[C@H](CC(C)C)NC(=O)[C@H](CC(C)C)NC(=O)[C@H](CC(=O)O)NC(=O)[C@@H]2CCCN2C(=O)[C@H](CCCNC(=N)N)NC(=O)[C@H](C(C)C)NC(=O)[C@H](CC(C)C)NC(=O)[C@H](CCC(N)=O)NC(=O)[C@@H](NC(=O)CCC(=O)O)CSSC[C@@H](C(=O)N[C@@H](CCC(N)=O)C(N)=O)NC1=O [BP3-107] (Suc-CQLVRPDLLLCQ-NH2; disulfide 1-11) was tested. Which IC50 ([1]; inhibition of 40 nM IGFBP-3 binding to immobilized IGF-1) did it give?
Answer: 100 µM

B1: Ala(1-3)-IGF: triple alanine mutant substituting the first three N-terminal amino acids of IGF-1 (protein)
chain: AAATLCGAELVDALQFVCGDRGFYFNKPTGYGSSSRRAPQTGIVDECCFRSCDLRRLEMYCAPLKPAKSVSGGGSGSGDFDYEKMANANKGAMTENADENALQSDAKGKLDSVATDYGAAIDGFIGDVSGLANGNGATGDFAGSNSQMAQVGDGDNSPLMNNFRQYLPSLPQSVECRPFVFSAGKPYEFSIDCDKINLFRGVFAFLLYVATFMYVFSTFANILRNKES
Question: With B1 as the molecule, how does the relative specificity [5] read?
Answer: 7.3

Question: And the “IGFBP-1 Relative IC50” value [2, 6]?
Answer: decreased IGFBP-1 affinity similar to E3A

Question: What about the “IGFBP-3 relative IC50” value [3, 6] of the same molecule?
Answer: no change in IGFBP-3 affinity
